Article PMC6774396 (Frontiers in Immunology, 2019)

Key:
[1] = target: moesin FERM domain, 1-297 (UniProt P26038); test: SPR competition assay
[2] = test system: THP-1 cells over TNF-α-activated HUVEC; test: L-selectin-GFP/RFP clustering in mid-TEM under flow, FLIM/FRET; assay type: cell-based, human
Description: (A) Line scanning confocal microscopic image of THP-1 cells, stably expressing GFP, captured in mid-TEM—following 15 min of perfusion over TNF-α-activated HUVEC monolayers. […] “Top” and “Base,” respectively, represent the apical and basolateral aspect of the endothelium (x63 objective lens, Leica SP5). Scale bar = 24 μm. (B,C) THP-1 cells expressing WT, SSAA, or SSDD L-selectin-GFP/RFP were perfused over TNF-α-activated HUVEC and fixed after 15 min of perfusion. […] Lifetime images taken of at least 45 cells and analyzed over 3 independent experiments was quantified and expressed as FRET efficiency. Images representative of three independent experiments, where at least 45 cells of each group was analyzed at two optical sections, Top and Base, as indicated in the cartoon of a yellow monocyte captured in mid-TEM crossing a red endothelium. Individual GFP channel and lifetime images are provided for each cell line. The lifetime of fluorescence is expressed in a pseudocolour scale from red (low lifetime with a very high probability of interaction) to blue (high lifetime with a very low probability of interaction). Statistics: unpaired student t-test ***p ≤ 0.001.
Cells expressing WT L-selectin-GFP/RFP were treated for 30 min with 10 μM TAPI-0 and subsequently perfused over TNF-activated HUVEC monolayers for 15 min prior to fixation and analysis for FRET by FLIM (see Materials and Methods for more detail). […] (B) Images representative of three independent experiments, where at least 45 cells of each group were analyzed at two optical sections–non-transmigrated uropods (Top) and transmigrated pseudopods (Base). GFP fluorescence channel and lifetime images are provided for each cell line. The lifetime of fluorescence is expressed in a pseudocolour scale from red (low lifetime with a very high probability of interaction) to blue (high lifetime with a very low probability of interaction). […]
FLIM measurement of FRET was performed with a multiphoton microscope system as described previously ([8], [23]). […] Fluorescence lifetime imaging capability was provided by time-correlated, single-photon counting electronics (SPC 700; Becker & Hickl). […] Data were analyzed as previously described ([65]). The FRET efficiency is related to the molecular separation of donor and acceptor and the fluorescence lifetime of the interacting fraction by: […]
where ηFRET is the FRET efficiency, R0 is the Förster radius, r is the molecular separation, τFRET is the lifetime of the interacting fraction and τd is the lifetime of the donor in the absence of an acceptor. The donor- only control is used as the reference against which all of other lifetimes are calculated in each experiment. τFRET and τd can also be taken to be the lifetime of the interacting fraction and non-interacting fraction, respectively. […]

[3] = test system: THP-1 cells over TNF-α-activated HUVEC; test: Pseudopod protrusion scoring in TEM under flow; assay type: cell-based, human
Description: (A) The number of protrusions formed over this period was scored as: zero, one, two, or >2. (B) The percentages of cells bearing these protrusions were scored at specific time points: 6 min (blue bars), 15 min (green bars), or 25 min (red bars). Supplementary Videos 2, 3, 4 provide examples of cells producing a range of protrusions as TEM proceeds. Data represent SEM of 3 fields of view per flow experiment, conducted on three separate occasions, and at least 180 cells analyzed per group. Values of the vertical lines indicate the differences in protrusion number (specifically “zero” and “two”) corresponding to each of the cell lines, for which statistical significance is shown in Table 1.
All flow experiments were performed using a 35 mm diameter Glycotech parallel plate flow chamber. Perfusion experiments were performed at 1.5 dyn/cm^2 using a Harvard Apparatus 2000 PHD syringe pump. Perfusion media consisted of: RPMI supplemented with L-glutamine, 10% FCS, 1% penicillin/streptomycin, 50 μM β-mercaptoethanol, and 25 mM HEPES. Human Umbilical Vein Endothelial Cells (HUVEC–Lonza) were seeded onto 35 mm diameter glass coverslips (no. 1 thickness; VWR) that were pre-coated with 10 μg/mL fibronectin (37°C for at least 1 h). Before each perfusion assay, HUVEC were stimulated overnight (16 h) with 10 ng/mL carrier-free recombinant human TNF-α (R&D Systems). Each perfusion assay was performed by injecting a bolus of cells for 6 min, followed by just perfusion media (without cells) for the […]. THP-1 cells were perfused at a density of 0.5 ×10^6 cells per mL. THP-1 cells treated with 10 μM TAPI-0 required a preincubation time of 10 min at 37°C before perfusion over TNF-α-activated HUVEC. Note that 10 μM TAPI-0 was also supplemented in the perfusate. Stills were acquired once every 10 seconds using 10 × objective lens.

L-selectin cytoplasmic tail, 356-372 (from UniProt P14151) pS364 tail peptide
binding against the reference ([1]; reference: non-phosphorylated tail peptide (NPP), sites S364): lost

CC(C)C[C@H](CC(=O)NO)C(=O)N[C@@H](Cc1ccc2ccccc2c1)C(=O)N[C@@H](C)C(N)=O [TAPI-0, reference compound]
subcellular distribution of WT L-selectin clustering during TEM with sheddase inhibitor ([2]; 10 μM TAPI-0 pretreatment and in perfusate, WT L-selectin-GFP/RFP, 15 min perfusion): a large majority of L-selectin clustering had relocated from transmigrated pseudopods to non-transmigrated uropods

L-selectin cytoplasmic tail, 356-372 (from UniProt P14151) pS367 tail peptide
binding against the reference ([1]; reference: non-phosphorylated tail peptide (NPP), sites S367): same

mouse L-selectin cytoplasmic tail (from UniProt P18337) mouse pS364 tail peptide
binding against the reference ([1]; reference: mouse non-phosphorylated tail peptide (NPP), sites S364): lost

B1: SSDD: L-selectin with phospho-mimicking aspartates at Ser^364 and Ser^367 (protein)
chain: WTYHYSEKPMNWQRARRFCRDNYTDLVAIQNKAEIEYLEKTLPFSRSYYWIGIRKIGGIWTWVGTNKSLTEEAENWGDGEPNNKKNKEDCVEIYIKRNKDAGKWNDDACHKLKAALCYTASCQPWSCSGHGECVEIINNYTCNCDVGYYGPQCQFVIQCEPLEAPELGTMDCTHPLGNFSFSSQCAFSCSEGTNLTGIEETTCGPFGNWSSPEPTCQVIQCEPLSAPDLGIMNCSHPLASFSFTSACTFICSEGTELIGKKKTICESSGIWSNPSPICQKLDKSFSMIKEGDYNPLFIPVAVMVTAFSGLAFIIWLARRLKKGKKDKRDMNDPY
modifications: left off: eGFP (donor copy) or mCherry (acceptor copy, called RFP), C-terminal, kept
subcellular distribution of L-selectin clustering during TEM (FLIM/FRET) ([2]; 15 min perfusion at 1.5 dyn/cm^2, fixed in mid-TEM, Top = non-transmigrated uropods, Base = transmigrated pseudopods, at least 45 cells, 3 experiments, no TAPI-0): lacked any signs of clustering during TEM

B2: S364A: L-selectin with Ser^364 mutated to alanine, GFP-tagged, expressed in THP-1 cells (protein, UniProt P14151 39-372, looked up, variant S364A)
L-selectin: WTYHYSEKPMNWQRARRFCRDNYTDLVAIQNKAEIEYLEKTLPFSRSYYWIGIRKIGGIWTWVGTNKSLTEEAENWGDGEPNNKKNKEDCVEIYIKRNKDAGKWNDDACHKLKAALCYTASCQPWSCSGHGECVEIINNYTCNCDVGYYGPQCQFVIQCEPLEAPELGTMDCTHPLGNFSFSSQCAFSCSEGTNLTGIEETTCGPFGNWSSPEPTCQVIQCEPLSAPDLGIMNCSHPLASFSFTSACTFICSEGTELIGKKKTICESSGIWSNPSPICQKLDKSFSMIKEGDYNPLFIPVAVMVTAFSGLAFIIWLARRLKKGKKAKRSMNDPY
modifications: C-terminal GFP tag
protrusive activity profile in TEM (in words) ([3]; 6, 15 and 25 min of flow over TNF-α-activated HUVEC): produced a profile of protrusive activity that was similar to cells expressing WT L-selectin
cells with 2 protrusions ([3]; 15 min time point, mean of 3 fields of view per flow experiment, three occasions, at least 180 cells per group, significance ** S367A p ≤ 0.01 (Tukey), % printed): 32.9%
cells with 0 protrusions ([3]; 15 min time point, mean of 3 fields of view per flow experiment, three occasions, at least 180 cells per group, significance *** S367A p ≤ 0.001, ** SSAA p ≤ 0.01 (Tukey), % printed): 11.3%
